The target of the assay is proteasome regulatory particle (S. cerevisiae) (UniProt P33299). Nature of the assay: co-IP.
Sequence of UniProt P33299 (P33299 whole entry, looked up): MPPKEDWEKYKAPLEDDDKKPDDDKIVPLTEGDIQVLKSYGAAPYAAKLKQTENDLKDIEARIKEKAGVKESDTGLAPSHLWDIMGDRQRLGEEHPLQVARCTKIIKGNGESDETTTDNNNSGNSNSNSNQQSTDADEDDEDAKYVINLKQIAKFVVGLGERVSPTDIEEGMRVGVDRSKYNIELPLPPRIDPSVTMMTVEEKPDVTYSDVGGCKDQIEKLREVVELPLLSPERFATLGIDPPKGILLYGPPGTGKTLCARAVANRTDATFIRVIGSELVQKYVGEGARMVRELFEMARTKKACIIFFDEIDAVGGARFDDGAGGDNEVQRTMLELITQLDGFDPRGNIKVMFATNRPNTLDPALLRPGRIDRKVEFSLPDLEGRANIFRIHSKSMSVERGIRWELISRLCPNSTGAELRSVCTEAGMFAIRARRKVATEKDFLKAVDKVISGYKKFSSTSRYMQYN

The substance “Rpn14 (from UniProt P53196 1-417) (natural protein)” came in with a relative % of RP-bound chaperone in wild type (not4Δ set as 100%) of 20%.

The values are drawn from PMC9214829.
